This note sets out measurements from US6818617.

Read-outs that look alike come from different tables or passages of the source. Bounds are passed on as bounds.

For assay [1], the target named is integrin α4β7 (UniProt P13612). Briefly: inhibition of cell adhesion: RPMI 8866 cells to MadCAM-1.
A further assay has as its target integrin αvβ3 (human) (UniProt P06756). Put plainly: inhibition of cell adhesion: VNRC3 (CHO αvβ3+) cells to immobilized vitronectin.
Assay [2] deals with integrin α6β1 on K562 cells transfected with α6 (UniProt P23229). Put plainly: inhibition of cell adhesion: K562 (α6+) cells to laminin.
Chain of integrin α6β1 on K562 cells transfected with α6 (P23229 24-1130, chain 1 of 2): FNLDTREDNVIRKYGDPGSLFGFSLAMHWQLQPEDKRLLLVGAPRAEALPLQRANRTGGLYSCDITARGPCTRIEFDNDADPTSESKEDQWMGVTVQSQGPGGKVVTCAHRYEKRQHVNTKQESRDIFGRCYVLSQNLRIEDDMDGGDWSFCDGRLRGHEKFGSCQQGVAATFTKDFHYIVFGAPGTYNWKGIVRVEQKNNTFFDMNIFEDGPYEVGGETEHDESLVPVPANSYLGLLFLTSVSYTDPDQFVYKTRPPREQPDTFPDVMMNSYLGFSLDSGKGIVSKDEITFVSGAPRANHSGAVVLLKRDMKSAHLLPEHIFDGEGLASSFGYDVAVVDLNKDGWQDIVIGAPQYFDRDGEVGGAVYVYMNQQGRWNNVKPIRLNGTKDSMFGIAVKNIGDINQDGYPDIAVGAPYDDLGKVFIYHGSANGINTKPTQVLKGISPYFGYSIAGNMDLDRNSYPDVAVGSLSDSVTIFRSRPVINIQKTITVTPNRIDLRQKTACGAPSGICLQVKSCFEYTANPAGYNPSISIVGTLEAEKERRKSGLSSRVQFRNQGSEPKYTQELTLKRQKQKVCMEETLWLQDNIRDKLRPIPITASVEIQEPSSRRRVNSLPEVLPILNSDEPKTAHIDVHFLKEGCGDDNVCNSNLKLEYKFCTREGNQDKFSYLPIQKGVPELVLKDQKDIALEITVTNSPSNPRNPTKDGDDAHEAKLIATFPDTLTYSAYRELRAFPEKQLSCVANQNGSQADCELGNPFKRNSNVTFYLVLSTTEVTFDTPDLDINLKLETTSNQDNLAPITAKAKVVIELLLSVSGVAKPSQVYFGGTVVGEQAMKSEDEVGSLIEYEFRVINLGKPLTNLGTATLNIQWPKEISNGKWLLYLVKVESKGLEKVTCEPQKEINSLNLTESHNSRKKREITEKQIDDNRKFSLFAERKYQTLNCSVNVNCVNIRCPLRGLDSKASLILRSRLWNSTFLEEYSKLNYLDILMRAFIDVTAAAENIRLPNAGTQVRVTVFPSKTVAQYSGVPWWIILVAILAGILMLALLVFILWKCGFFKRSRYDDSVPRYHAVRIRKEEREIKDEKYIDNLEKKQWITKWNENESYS
Chain of integrin α6β1 on K562 cells transfected with α6 (P05556 21-798, chain 2 of 2, further chain): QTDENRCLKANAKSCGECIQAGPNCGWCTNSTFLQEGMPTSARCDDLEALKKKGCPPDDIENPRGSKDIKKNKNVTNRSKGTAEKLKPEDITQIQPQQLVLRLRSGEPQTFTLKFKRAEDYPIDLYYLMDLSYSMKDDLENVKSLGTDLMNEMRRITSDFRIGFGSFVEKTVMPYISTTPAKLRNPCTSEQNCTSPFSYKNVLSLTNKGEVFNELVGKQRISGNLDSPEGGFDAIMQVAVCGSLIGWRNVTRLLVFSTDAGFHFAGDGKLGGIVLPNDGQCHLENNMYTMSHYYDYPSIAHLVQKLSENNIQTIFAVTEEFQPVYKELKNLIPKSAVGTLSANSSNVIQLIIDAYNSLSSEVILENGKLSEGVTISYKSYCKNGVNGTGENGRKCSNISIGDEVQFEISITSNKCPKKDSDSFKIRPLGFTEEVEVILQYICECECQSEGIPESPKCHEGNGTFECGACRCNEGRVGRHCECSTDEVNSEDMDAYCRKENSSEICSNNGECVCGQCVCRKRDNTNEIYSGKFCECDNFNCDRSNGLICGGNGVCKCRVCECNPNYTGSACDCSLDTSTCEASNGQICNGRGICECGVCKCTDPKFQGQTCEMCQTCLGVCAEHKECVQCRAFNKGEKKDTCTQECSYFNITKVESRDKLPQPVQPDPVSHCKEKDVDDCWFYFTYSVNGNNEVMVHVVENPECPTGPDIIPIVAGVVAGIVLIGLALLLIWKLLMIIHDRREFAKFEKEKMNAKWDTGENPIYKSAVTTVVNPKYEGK
In assay [3] the target is integrin α4β1 on Jurkat cells (UniProt P13612). Briefly: inhibition of cell adhesion: Jurkat cells to immobilized VCAM-1.
Assay [4] has as its target integrin αIIbβ3 (human) (UniProt P08514). Put plainly: inhibition of cell adhesion: A5 (CHO αIIbβ3+) cells to immobilized fibrinogen.
Assay [5] has as its target integrin α4β7 (UniProt P13612).
Assay [6] deals with integrin α4β1 on Jurkat cells (UniProt P13612).
The target in assay [7] is integrin αIIbβ3 (human) (UniProt P08514). Put plainly: cell-based or functional assay.
The target in assay [8] is integrin α4β1 on Jurkat cells (UniProt P13612). Put plainly: inhibition of cell adhesion: Jurkat cells to CS-1.

Chain of integrin αvβ3 (human) (P06756 31-1048, chain 1 of 2): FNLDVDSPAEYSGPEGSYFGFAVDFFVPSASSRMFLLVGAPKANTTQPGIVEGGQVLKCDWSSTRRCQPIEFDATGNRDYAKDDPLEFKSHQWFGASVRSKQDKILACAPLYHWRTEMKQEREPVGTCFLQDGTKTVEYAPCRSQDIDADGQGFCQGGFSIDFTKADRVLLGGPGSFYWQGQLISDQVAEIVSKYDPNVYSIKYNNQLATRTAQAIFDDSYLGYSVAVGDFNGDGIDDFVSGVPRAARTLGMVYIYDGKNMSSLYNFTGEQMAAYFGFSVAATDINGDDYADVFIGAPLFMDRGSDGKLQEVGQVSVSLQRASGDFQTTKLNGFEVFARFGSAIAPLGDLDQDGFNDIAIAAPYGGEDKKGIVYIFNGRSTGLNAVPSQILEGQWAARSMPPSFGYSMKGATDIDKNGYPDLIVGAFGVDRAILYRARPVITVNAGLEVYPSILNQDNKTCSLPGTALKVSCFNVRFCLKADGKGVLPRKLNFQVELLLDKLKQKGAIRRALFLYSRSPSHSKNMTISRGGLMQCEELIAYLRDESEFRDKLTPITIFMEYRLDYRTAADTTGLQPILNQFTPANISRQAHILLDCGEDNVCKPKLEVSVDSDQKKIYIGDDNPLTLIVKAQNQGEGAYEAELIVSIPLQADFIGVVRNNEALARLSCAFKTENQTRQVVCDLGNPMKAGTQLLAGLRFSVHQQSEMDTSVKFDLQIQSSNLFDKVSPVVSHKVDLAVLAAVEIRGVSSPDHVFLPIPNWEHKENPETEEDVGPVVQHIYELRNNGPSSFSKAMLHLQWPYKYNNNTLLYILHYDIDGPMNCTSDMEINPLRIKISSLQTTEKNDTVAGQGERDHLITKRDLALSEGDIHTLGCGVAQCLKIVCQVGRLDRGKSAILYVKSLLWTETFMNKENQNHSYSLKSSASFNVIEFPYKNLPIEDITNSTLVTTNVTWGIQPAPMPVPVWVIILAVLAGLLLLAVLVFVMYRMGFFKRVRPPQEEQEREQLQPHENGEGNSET
Chain of integrin αvβ3 (human) (P05106 27-788, chain 2 of 2, further chain): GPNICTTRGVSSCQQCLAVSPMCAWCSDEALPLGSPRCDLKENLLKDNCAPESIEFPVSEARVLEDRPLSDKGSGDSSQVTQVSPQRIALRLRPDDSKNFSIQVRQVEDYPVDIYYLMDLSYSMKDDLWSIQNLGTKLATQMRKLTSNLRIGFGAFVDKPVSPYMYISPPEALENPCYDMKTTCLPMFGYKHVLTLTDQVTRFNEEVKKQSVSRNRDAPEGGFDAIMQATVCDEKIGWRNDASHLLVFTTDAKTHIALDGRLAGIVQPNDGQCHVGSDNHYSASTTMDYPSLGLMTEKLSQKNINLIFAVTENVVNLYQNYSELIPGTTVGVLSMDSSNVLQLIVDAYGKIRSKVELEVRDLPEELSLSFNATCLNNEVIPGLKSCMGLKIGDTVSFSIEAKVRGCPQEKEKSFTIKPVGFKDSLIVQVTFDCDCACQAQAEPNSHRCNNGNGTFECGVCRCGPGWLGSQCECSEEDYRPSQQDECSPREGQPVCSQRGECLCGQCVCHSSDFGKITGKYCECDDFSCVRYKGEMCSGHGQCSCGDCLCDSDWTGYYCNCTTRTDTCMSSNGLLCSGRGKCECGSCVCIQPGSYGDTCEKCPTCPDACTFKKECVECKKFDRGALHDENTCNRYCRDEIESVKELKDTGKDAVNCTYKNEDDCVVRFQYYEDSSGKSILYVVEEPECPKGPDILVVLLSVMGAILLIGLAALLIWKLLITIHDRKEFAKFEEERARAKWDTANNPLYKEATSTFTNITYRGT

With “EC-3 protein, heterodimeric disintegrin from Echis carinatus suchoreki venom (from UniProt P81630 1-67; P81631 1-67)”, the IC50 with integrin α4β7 [1] was 0.005 µM; with integrin αvβ3 (human), greater than 10 µM; in assay [2] it was greater than 10 µM; in [3] it was 0.025 µM; in the assay with integrin αIIbβ3 (human) [4], 0.5 µM; with integrin α4β7 [5] it was 0.006 µM. The IC50 came to 0.028 µM in assay [6] and 0.1 µM in assay [8]. The substance also registered an IC50, ADP PA (ADP-induced platelet aggregation in platelet rich plasma) with integrin αIIbβ3 (human) [7] of 1 µM.

For the substance Echistatin (from UniProt P0C6R5 4-52), the IC50 with integrin α4β7 [1] was greater than 10 µM; with integrin αvβ3 (human) it was 0.05 µM; in [2], greater than 10 µM; in assay [3], greater than 10 µM; with integrin αIIbβ3 (human) [4] it was 0.05 µM. The IC50, ADP PA (ADP-induced platelet aggregation in platelet rich plasma) with integrin αIIbβ3 (human) [7] is 0.13 µM.

By IC50 is commonly meant the point on the concentration scale where inhibition reaches its midpoint. A low value points to higher potency.
